# B1: MreC from Pseudomonas aeruginosa lacking the TM region and the first 21 residues of its N-terminal helix, residues 36-330 (domain or fragment, Pseudomonas aeruginosa PAO1, UniProt Q9HVU1 36-330, looked up)
# chain: LAEMPVRAWEGVRDQFSSRSELIAENERLKAESLLMQRRVQKLAALTEQNVRLRELLNSAALVDDKVLVSELIGVDPNPFTQRIMIDKGENDGVFVGQPVLDASGLMGQVVEVMPYTARVLLLTDTTHSIPVQVNRNGLRAIAVGTGNPERLELRYVADTADIKEGDLLVSSGLGQRFPAGYPVATVKEVIHDSGQPFAVVRAVPTAKMNRSRYVLLVFSDSRTPEQRANDAAEAQEEADKKAAAGAQAPQPAAQPAAAPSPATPAAQGAAQQPAAAPAPAPTQPAAPAANGGRR
# notes: MreC, Pseudomonas aeruginosa PAO1, residues 36-330; also called MreCPa(36-330); MreCPa; not shown: GST, N-terminal, cleaved
# B2: MreC from Pseudomonas aeruginosa, periplasmic form, residues 15-330 (domain or fragment, Pseudomonas aeruginosa PAO1, UniProt Q9HVU1 15-330, looked up)
# chain: RFDYLEPVRSKLGMVLTPFYGLAEMPVRAWEGVRDQFSSRSELIAENERLKAESLLMQRRVQKLAALTEQNVRLRELLNSAALVDDKVLVSELIGVDPNPFTQRIMIDKGENDGVFVGQPVLDASGLMGQVVEVMPYTARVLLLTDTTHSIPVQVNRNGLRAIAVGTGNPERLELRYVADTADIKEGDLLVSSGLGQRFPAGYPVATVKEVIHDSGQPFAVVRAVPTAKMNRSRYVLLVFSDSRTPEQRANDAAEAQEEADKKAAAGAQAPQPAAQPAAAPSPATPAAQGAAQQPAAAPAPAPTQPAAPAANGGRR
# notes: MreC, Pseudomonas aeruginosa PAO1, residues 15-330; lacks the first 14 amino acids (cytoplasmic residues and TM region); The results call it only 'MreCPa' (periplasmic form); also called MreCPa; MreCPa(15-330); not shown: GST, N-terminal, cleaved
# How the values were obtained:
# [1] = target: the molecule itself; assay: negative-staining electron microscopy; purified protein concentrated in 25 mM CHES pH 9.0, 150 mM NaCl, 10 mM MgCl2; mica-carbon flotation, 2% sodium silico tungstate pH 7.4
# [2] = target: the molecule itself; assay: AUC; sedimentation velocity (SV-AUC), 0.8 mg/ml protein, 25 mM CHES pH 9.0, 150 mM NaCl, 10 mM MgCl2, 62,000 g, 20 °C, absorbance at 280 nm, c(s) analysis with Sedfit
Protein,binding result [1],binding result [2]
B1,binds,
B2,,binds

# From PMC8137920, “Self-association of MreC as a regulatory signal in bacterial cell wall elongation” (Nature Communications, 2021)
